Experimental findings from US20240182585A1 (CAMBRIDGE ENTERPRISE, published 2024) are described below.

In test [1] the target is T1, human GFRAL expressed on the surface of HEK293 cells (co-expressed with human RET) (human, UniProt Q6UXV0 19-394).
T1 sequence: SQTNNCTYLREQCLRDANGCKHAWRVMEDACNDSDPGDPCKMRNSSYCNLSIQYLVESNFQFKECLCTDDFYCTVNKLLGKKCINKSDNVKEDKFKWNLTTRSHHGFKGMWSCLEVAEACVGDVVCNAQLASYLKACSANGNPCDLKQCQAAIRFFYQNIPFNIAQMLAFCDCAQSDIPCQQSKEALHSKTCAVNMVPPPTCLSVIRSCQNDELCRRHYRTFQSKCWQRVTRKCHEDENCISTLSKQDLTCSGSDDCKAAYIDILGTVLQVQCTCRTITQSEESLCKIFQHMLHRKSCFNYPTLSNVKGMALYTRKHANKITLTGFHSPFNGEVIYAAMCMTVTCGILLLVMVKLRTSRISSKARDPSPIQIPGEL
As to the kind of experiment: cell-based or functional assay.

Test [2] concerns the target T2, His-tagged human GFRAL (recombinant soluble GFRAL protein, R&D catalogue no. 9647-GR-050) (human, UniProt Q6UXV0 19-351).
T2 construct: Bought soluble protein; also called Human GFRAL with a 6His tag; GFRAL antigen; not shown: 6His tag
T2 sequence: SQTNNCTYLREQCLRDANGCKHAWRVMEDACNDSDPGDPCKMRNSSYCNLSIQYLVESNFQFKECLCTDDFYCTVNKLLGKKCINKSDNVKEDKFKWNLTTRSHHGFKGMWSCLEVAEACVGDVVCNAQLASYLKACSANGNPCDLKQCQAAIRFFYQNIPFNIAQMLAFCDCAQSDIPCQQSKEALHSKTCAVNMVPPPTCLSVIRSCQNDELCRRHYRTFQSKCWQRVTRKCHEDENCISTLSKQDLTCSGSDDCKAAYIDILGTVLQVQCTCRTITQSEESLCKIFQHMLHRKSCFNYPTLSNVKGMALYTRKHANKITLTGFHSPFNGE
The test is described as follows: SPR sandwich assay: row antibody captured via anti-Fc, GFRAL antigen added, then mAbQ injected as analyte (competitor: mAb Q). As for the experimental part:
(§1) In this assay, pairs of antibodies are tested for their ability to simultaneously bind antigen. A first antibody is coupled via its Fc region to a solid support and the GFRAL antigen is added in solution, allowing formation of an antibody-antigen complex. A second antibody is then added in solution.

The target of test [3] is T2, His-tagged human GFRAL (recombinant …). The test is described as follows: SPR sandwich assay: row antibody captured via anti-Fc, GFRAL antigen added, then GDF15 injected as analyte (competitor: GDF15). The procedure: as §1
The same principle may be used to assess whether an antibody and a native ligand compete for binding to antigen. Thus, a test antibody is coupled to a solid support and the GFRAL antigen is added in solution, allowing formation of an antibody-GFRAL complex. GDF15 is then added in solution.

Test [4] deals with T3, mouse GFRAL-Fc fusion (R&D catalogue no. 9844-GR-050050) (mouse, UniProt Q6SJE0 20-349).
T3 construct: Bought fusion protein; not shown: Fc part of the bought fusion
T3 sequence: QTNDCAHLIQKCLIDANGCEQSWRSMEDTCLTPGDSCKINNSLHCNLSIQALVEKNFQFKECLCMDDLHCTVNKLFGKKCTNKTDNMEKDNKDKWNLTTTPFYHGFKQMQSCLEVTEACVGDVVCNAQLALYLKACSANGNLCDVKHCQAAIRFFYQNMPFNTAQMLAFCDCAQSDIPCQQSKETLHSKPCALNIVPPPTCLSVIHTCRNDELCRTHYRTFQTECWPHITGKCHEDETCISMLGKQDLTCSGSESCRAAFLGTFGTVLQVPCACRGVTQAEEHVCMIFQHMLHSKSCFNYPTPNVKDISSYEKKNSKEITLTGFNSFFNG
The test is described as follows: SPR, antibody captured via anti-human Fc, mouse GFRAL-Fc fusion as analyte, method of Example 2. As for the experimental part: (§2) Binding of antibodies to human GFRAL was measured by SPR using His-tagged human GFRAL as analyte, and test antibody coupled to the surface of a CM4 biosensor chip via immobilised anti-human Fc antibody. Running buffer was HBS-P+ buffer pH 7.4 (GE BR100671) with 1 mM CaCl₂. Antibodies were captured for 60 seconds at 1 μg/ml (˜80-140 RU captured, depending on the binder). Analyte (recombinant soluble GFRAL protein, R&D catalogue no. 9647-GR-050) was injected at 100, 25, 6.25, 1.56, 0.39, 0.098, 0.024 and 0 nM for 120 seconds association time at […] and dissociation was monitored for 1200 seconds. The chip surface was regenerated using 10 mM glycine pH 1.5. All experiments were performed at 25° C. Sensorgrams for each antibody were double subtracted (reference cell and 0 concentration). Data were fitted to a 1:1 binding interaction model. Sensorgrams were fitted using multiple cycle kinetics mode. […] FIG. 5.
Affinity for mouse GFRAL was determined by SPR by the same method as in Example 2 using a mouse GFRAL-Fc fusion (R&D catalogue no. 9844-GR-050050) as analyte. FIG. 6.
(In SPR one partner is held on a chip, and binding of the other changes the refractive index at the surface.)

For test [5], the target named is T2, His-tagged human GFRAL (recombinant …). The test is described as follows: SPR, antibody captured via anti-human Fc on CM4 chip, His-tagged human GFRAL as analyte, 25 C, 1:1 model. The procedure: as §2
Test [6] shares this target. As to the kind of experiment: SPR, KD for human GFRAL of QUEL-0301 compared with reference antibody mAb Q.
Test [7] has as its target T1, human GFRAL expressed on the surface of …. The test is described as follows: cell-based or functional assay. The source holds these as a separate data set.
Test [8] addresses T3, mouse GFRAL-Fc fusion (R&D catalogue …). As to the kind of experiment: SPR, KD for mouse GFRAL compared with KD for human GFRAL.

B1: recombinant human GDF15 protein with 6-His tag (R&D Systems, 957-GD) (ligand, UniProt Q99988 197-308, looked up)
chain: ARNGDHCPLGPGRCCRLHTVRASLEDLGWADWVLSPREVQVTMCIGACPSQFRAANMHAQIKTSLHRLKPDTVPAPCCVPASYNPMVLIQKTDTGVSLQTYDDLLAKDCHCI
As for B1, in test [1], the “EC50 (read off the curve)” value was approximately 1 nM.

B2: QUEL-0301 (antibody, V domains shown)
VH: EVQLVESGGGLVQPGGSLRLSCAASGFTFSNSWMNWVRQTPGKGLEWVANIDQDGDQKYYVDSVKGRFTISRDNAKNSLYLQMNSLRAEDTAVYYCAREITGTTFDYWGQGTLVTVSS
VL: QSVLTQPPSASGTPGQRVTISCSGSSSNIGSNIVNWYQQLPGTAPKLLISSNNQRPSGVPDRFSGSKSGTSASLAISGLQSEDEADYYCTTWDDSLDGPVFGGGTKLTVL
notes: the antibody was captured via anti-human Fc antibody
Consider B2, for which the “resonance units after mAbQ injection” value in test [2] came to 298 resonance units. In addition, the “resonance units after GDF15 injection” value in test [3] turned out to be 77.3 resonance units. For the same molecule, in test [4], binding was put at a Kd of 4.95 nM, the koff came to 0.000524 s⁻¹ and the kon was 106000 M⁻¹ s⁻¹. In test [5], the Kd came to 0.000988 nM, the koff is 9.72e-06 s⁻¹ and the kon is 9.83e+06 M⁻¹ s⁻¹. Further, the “fold difference in affinity against mAb Q” value in test [6] is approximately 4 fold. In test [7], the “IC50 (ERK phosphorylation HTRF assay, 4 nM GDF15)” value (“IC50” for short) turned out to be 9.4 nM.

B3: QUEL-0101 (antibody, V domains shown)
VH: QVQLVESGGGVVQPGRSLRLSCAASGFAFNNYGMHWVRQGPGRGLEWVAIISYDGTTQYSVDSVKGRFTISRDNSKNTLYLQMNSLRTEDTALYYCAKEAGDFYGSGNYGYHKYGLDVWGQGTTVTVSS
VL: DIQMTQSPSSLSASVGDRVTITCRASQDISNYLAWYQQKPGKIPKLLIYAASTLQSGVPSRFSGSGSGTDFTLTISSLQPEDVASYYCQKYSSAPLTFGGGTKVEIK
notes: as for B2
For the molecule B3, the “resonance units after mAbQ injection” value in test [2] was found to be 306 resonance units. In test [3], the “resonance units after GDF15 injection” value was 87.3 resonance units. In test [4], this molecule came in with a Kd of 1.19 nM, a koff of 0.000112 s⁻¹ and a kon of 93700 M⁻¹ s⁻¹. For the same molecule, in test [5], the Kd amounted to 0.14 nM, the koff stood at 7.87e-05 s⁻¹ and the kon stood at 561000 M⁻¹ s⁻¹. Moreover, the “fold difference in affinity, human against mouse GFRAL” value in test [8] was not above 10 fold. The “IC50” value in test [7] worked out at 2.8 nM.

B4: QUEL-0201 (antibody, V domains shown)
VH: QVQLVQSGAEVKEPGASVRVSCKASGYTFISHAIHWVRQAPGQRLEWMGWINAVNGNTKYSQKFQDRVTFTRDTSASTAYMDLNSLRAEDTALYYCAREGYTYGVHYSYGMDVWGQGTTVTVSS
VL: QSVLTQPPSVSGAPGQRVTISCTGSSSNIGAGYDVHWYQQLPGTVLKLLIYGNNNRPSGVPDRFSGSNSGTSASLAITGLQPEDEADYYCQSYDSSLSGYWVFGGGTKLTVL
notes: as for B2
Regarding B4, in test [2], the “resonance units after mAbQ injection” value was 268 resonance units. Moreover, the “resonance units after GDF15 injection” value in test [3] is 83.9 resonance units. In addition, in test [4], the Kd came to 0.0648 nM, the koff was 9.9e-06 s⁻¹ and the kon is 153000 M⁻¹ s⁻¹. In addition, in test [5], the Kd was found to be 0.0839 nM, the off-rate constant (koff) was determined as 6.19e-05 s⁻¹ and the kon was 738000 M⁻¹ s⁻¹. The “fold difference in affinity, human against mouse GFRAL” value in test [8] is not above 1.5 fold. Also, in test [7], the “IC50” value turned out to be 8.6 nM.

The EC50 (read off the curve) is the concentration at which the effect is half-maximal. Low values mean higher potency in that assay, high ones lower potency in that assay. For orientation: Kd means a measure of binding affinity in units of concentration. As usually defined, the koff is the first-order rate constant of dissociation. As a reminder, the kon is the rate constant with which the complex forms.
